Residue numbers refer to the chain shown, from its start. Numbers in names are those of the source. Unless stated, no cut-off for active and inactive is given here.
B1: 35-E11: P450 BM-3 variant, SEQ ID NO:7: 53-5H substitutions plus E464G and I710T (protein)
chain: TIKEMPQPKTFGELKNLPLLNTDKPVQALMKIADELGEIFKFEAPGCVTRYLSSQRLIKEACDESRFDKNLSQALKFFRDFSGDGLFTSWTHEINWKKAHNILLPSFSQQAMKGYHAMMVDIAVQLVQKWERLNADEHIEVSEDMTRLTLDTIGLCGFNYRFNSFYRDQPHPFIISMVRALDEVMNKLQRANPDDPAYDENKRQCQEDIKVMNDLVDKIIADRKARGEQSDDLLTQMLNGKDPETGEPLDDGNISYQIITFLIAGHETTSGLLSFALYFLVKNPHVLQKVVEEAARVLVDPVPSYKQVKQLKYVGMVLNEALRLWPTFPAFSLYAKEDTVLGGEYPLEKGDEVMVLIPQLHRDKTIWGDDVEEFRPERFENPSAIPQHAFKPFGNGQRACIGQQFALHEATLVLGMMLKHFDFEDHTNYELDIKETLTLKPEGFVVKAKSKKIPLGGIPSPSTGQSAKKVRKKAENAHNTPLLVLYGSNMGTAEGTARDLADIAMSKGFAPQVATLDSHAGNLPREGAVLIVTASYNGHPPDNAKQFVDWLDQASADEVKGVRYSVFGCGDKNWATTYQKVPAFIDETLAAKGAENIADRGEADASDDFEGTYEEWREHMWSDVAAYFNLDIENSEDNKSTLSLQFVDSAADMPLAKMHGAFSTNVVASKELQQPGSARSTRHLEIELPKEASYQEGDHLGVIPRNYEGTVNRVTARFGLDASQQIRLEAEEEKLAHLPLAKTVSVEELLQYVELQDPVTRTQLRAMAAKTVCPPHKVELEALLEKQAYKEQVLAKRLTMLELLEKYPACEMKFSEFIALLPSIRPRYYSISSSPRVDEKQASITVSVVSGEAWSGYGEYKGIASNYLAELQEGDTITCFISTPQSEFTLPKDPETPLIMVGPGTGVAPFRGFVQARKQLKEQGQSLGEAHLYFGCRSPHEDYLYQEELENAQSEGIITLHTAFSRMPNQPKTYVQHVMEQDGKKLIELLDQGAHFYICGDGSQMAPAVEATLMKSYADVHQVSEADARLWLQQLEEKGRYAKDVWAG
modifications: mutant P450 35-E11 protein sequence
B2: P450PMO: P450 BM-3 variant, SEQ ID NO:125; 7-7 plus G443A and D698G; propane monooxygenase (protein)
chain: B1 chain with L52I, A74E, S82G, L188P, I366V, G443A, D698G
modifications: Mutant P450PMO protein sequence
notes: 7-7 plus G443A and D698G; propane monooxygenase
B3: Wild-type BM-3: wild-type cytochrome P450 BM-3 from Bacillus megaterium, SEQ ID NO:1 (protein, listed as Bacillus megaterium)
chain: TIKEMPQPKTFGELKNLPLLNTDKPVQALMKIADELGEIFKFEAPGRVTRYLSSQRLIKEACDESRFDKNLSQALKFVRDFAGDGLFTSWTHEKNWKKAHNILLPSFSQQAMKGYHAMMVDIAVQLVQKWERLNADEHIEVPEDMTRLTLDTIGLCGFNYRFNSFYRDQPHPFITSMVRALDEAMNKLQRANPDDPAYDENKRQFQEDIKVMNDLVDKIIADRKASGEQSDDLLTHMLNGKDPETGEPLDDENIRYQIITFLIAGHETTSGLLSFALYFLVKNPHVLQKAAEEAARVLVDPVPSYKQVKQLKYVGMVLNEALRLWPTAPAFSLYAKEDTVLGGEYPLEKGDELMVLIPQLHRDKTIWGDDVEEFRPERFENPSAIPQHAFKPFGNGQRACIGQQFALHEATLVLGMMLKHFDFEDHTNYELDIKETLTLKPEGFVVKAKSKKIPLGGIPSPSTEQSAKKVRKKAENAHNTPLLVLYGSNMGTAEGTARDLADIAMSKGFAPQVATLDSHAGNLPREGAVLIVTASYNGHPPDNAKQFVDWLDQASADEVKGVRYSVFGCGDKNWATTYQKVPAFIDETLAAKGAENIADRGEADASDDFEGTYEEWREHMWSDVAAYFNLDIENSEDNKSTLSLQFVDSAADMPLAKMHGAFSTNVVASKELQQPGSARSTRHLEIELPKEASYQEGDHLGVIPRNYEGIVNRVTARFGLDASQQIRLEAEEEKLAHLPLAKTVSVEELLQYVELQDPVTRTQLRAMAAKTVCPPHKVELEALLEKQAYKEQVLAKRLTMLELLEKYPACEMKFSEFIALLPSIRPRYYSISSSPRVDEKQASITVSVVSGEAWSGYGEYKGIASNYLAELQEGDTITCFISTPQSEFTLPKDPETPLIMVGPGTGVAPFRGFVQARKQLKEQGQSLGEAHLYFGCRSPHEDYLYQEELENAQSEGIITLHTAFSRMPNQPKTYVQHVMEQDGKKLIELLDQGAHFYICGDGSQMAPAVEATLMKSYADVHQVSEADARLWLQQLEEKGRYAKDVWAG

Columns and labels:
[1] = Propane hydroxylation (rate, total turnover, products); format: biochemical
Protocol: Cell lysates for high throughput screening were prepared as described previously (Peters et al., J. Am. Chem. Soc. 125:13442 (2003); incorporated by reference herein). High-throughput dimethyl ether (DME) screens were performed in 96 well plates as described previously. Improved mutants were selected based on an increased signal compared to 9-10A (for the saturation mutagenesis libraries) and 1-12G (for the recombination library). Reactions on octane and propane were analyzed by gas chromatography as described.
Rates of ethanol formation were measured over 30 min using gas chromatography (GC) coupled to an electron capture detector (ECD) and are reported as nmol ethanol/min/nmol enzyme. Errors are at most 10%. Total turnover number (ttn) was measured using GC after completion of the reaction and is reported as nmol product/nmol protein. Errors are at most 10%. Initial rates of propanol and octanol formation were measured over 1 min by GC and are reported as nmol product/min/nmol protein. Errors are at most 15%. The “ee” of 2-octanol (main product) was measured by GC; the favored enantiomer is listed in parenthesis. Wild-type P450 BM-3 primarily produces 3- and 4-octanol. The yields were not sufficient for the determination of ee for wt BM-3. Mutant 9-10A contains amino acid substitutions R47C, V78A K94I, P142S, T175I, A184V, F205C, S226R, H236Q, E252G, R255S, A290V, and L353V.
In Table 5 the product distribution is determined as ratio of a specific alcohol product to the total amount of all alcohol products (given in %). The product distribution for ketones was similar to alcohol product distribution. The numbers reported here are the (%) total of all ketones relative to total products (alcohols+ketones). The favored enantiomer is listed in parentheses.
For the data shown in Table 6 the initial NADPH consumption rates were measured over 15 seconds at 340 nm as nmol NADPH/min/nmol protein. Octane reactions contained 100 nM P450, 166 uM NADPH, and 4 mM octane in 1% ethanol and potassium phosphate buffer. […] Errors are at most 10%. Initial rates were measured by GC over 1 minute as nmol total products/min/nmol protein. Octane reactions contained 100 nM P450, 500 uM NADPH, and 4 mM octane in 1% ethanol and potassium phosphate buffer. Propane reactions contained 1 uM P450, 500 uM NADPH, and propane-saturated potassium phosphate buffer. Coupling was determined by ratio of product formation rate to NADPH consumption rate. Total turnover numbers were determined as nmol product/nmol enzyme. Octane reactions contained 10-25 nM P450, 500 uM NADPH, and 4 mM octane in 1% ethanol and potassium phosphate buffer. Propane reactions contained 10-25 nM protein, potassium phosphate buffer saturated with propane, and an NADPH regeneration system containing 100 uM NADP+, 2 U/mL isocitrate dehydrogenase, and 10 mM isocitrate.

[2] = Kinetic measurements (Michaelis-Menten): propane; format: biochemical; conditions: N.a. = not active
Protocol: Rate measurements. Initial rates of product formation were determined at 25° C. in 100 mM KPi pH 8.0 buffer using purified protein (100 nM) and a substrate concentration of 1.6 mM. In a 5 mL-vial, 20 μL of alkane solution (in ethanol) were dissolved in 400 μL KPi buffer, to which 500 μL enzyme solution at 100-200 nM was added. Reaction was initiated by adding 100 μL of 5 mM NADPH solution, followed by stirring at 300 rpm for 1 minute, and quenched by adding 200 μL chloroform and stirring at 800 rpm for 10 sec. Solutions were transferred to an Eppendorf tube, to which internal standard (10 μL 25 mM 1-bromohexane in ethanol) was added. Tubes were vortexed for 10 sec and centrifuged for 30 sec at 10,000 g. Organic phase was removed and analyzed by GC. For propane, reactions were carried out in a 5 mL-scale using 100-400 nM purified enzyme, propane-saturated buffer (propane concentration≈1.6 mM) and a final NADPH concentration of 500 μM. Reactions were stopped by addition of 200 μL H2SO4 conc. and analyzed by derivatization to alkyl nitrites followed by GC-ECD analysis as described below.
Kinetic measurements. […] Reactions were carried out in a 5 mL-scale using 100-400 nM purified enzyme and a final NADPH concentration of 1 mM. After 30 seconds, reactions were stopped by addition of 200 μL H2SO4 conc. and analyzed by GC as described below. Propane leakage during the experiment was neglected in reason of short measuring time. All measurements were performed in triplicate. Kinetic parameters were estimated from least-squares nonlinear regression to the Michaelis-Menten equation,
[formula] where v is the initial velocity, S is the substrate concentration, Vmax is the maximum velocity, and Km is the apparent Michaelis constant for the substrate.
Products from alkane reactions were identified and quantified by gas chromatography using authentic standards and calibration curves with internal standards. For the reactions with alkanes from pentane to decane, GC analyses were carried out using a Shimadzu GC-17A gas chromatograph, Agilent HP5 column (30 m×0.32 mm×0.1 μm film), 1 μL injection, FID detector, and the following separation program: 250° C. inlet, 250° C. detector, 50° C. oven for 3 min, 5° C./min gradient to 100° C., 25° C./min gradient to 230° C., and 230° C. for 3 min. For butane and propane (TTN) reactions, GC analyses were carried out using a Hewlett-Packard 5890 Series II Plus gas chromatograph, Supelco SPB-1 column (60 m×0.52 mm×0.5 μm film), 0.5 μL injection, FID detector, and the following separation program: 250° C. inlet, 275° C. detector, 80° C. oven for 2 min, 10° C./min gradient to 110° C., 25° C./min gradient to 275° C., and 275° C. for 2.5 min. […] Organic solutions were analyzed by FID-GC.

Row | Molecule | Propane ttn ([1]; after completion of the reaction) [nmol product/nmol protein] | Propane Rate ([1]; initial rate of propanol formation over 1 min by GC) | Km [2] [µM] | kcat [2] [s⁻¹] | activity on propane ([1]; listed as P450BM3) | activity on propane ([1]; listed as wild-type P450BM3) | activity on propane ([1]; listed as wildtype cytochrome P450 BM-3)
1 | B1 | 6000 | 210 nmol product/min/nmol protein | 820 ± 95 | 4.08 ± 0.417 |  |  | 
2 | B2 |  |  | 170 | 3.08 ± 0.583 |  |  | 
3 | B3 |  |  |  |  | no measurable activity | no detectable propane activity | inactive

From patent publication US12258605B2, “Alkane oxidation by modified hydroxylases” (The California Institute of Technology, priority 2005, dated 2025)
